Data reported in article PMC2714985 (Journal of immunology (Baltimore, Md. : 1950), 2009).

Target: rat collagen type I (rat, UniProt P02454 152-1207; P02466 86-1125)
Experiment: SPR

rat collagen type I, sequence (P02454 152-1207, chain 1 of 2): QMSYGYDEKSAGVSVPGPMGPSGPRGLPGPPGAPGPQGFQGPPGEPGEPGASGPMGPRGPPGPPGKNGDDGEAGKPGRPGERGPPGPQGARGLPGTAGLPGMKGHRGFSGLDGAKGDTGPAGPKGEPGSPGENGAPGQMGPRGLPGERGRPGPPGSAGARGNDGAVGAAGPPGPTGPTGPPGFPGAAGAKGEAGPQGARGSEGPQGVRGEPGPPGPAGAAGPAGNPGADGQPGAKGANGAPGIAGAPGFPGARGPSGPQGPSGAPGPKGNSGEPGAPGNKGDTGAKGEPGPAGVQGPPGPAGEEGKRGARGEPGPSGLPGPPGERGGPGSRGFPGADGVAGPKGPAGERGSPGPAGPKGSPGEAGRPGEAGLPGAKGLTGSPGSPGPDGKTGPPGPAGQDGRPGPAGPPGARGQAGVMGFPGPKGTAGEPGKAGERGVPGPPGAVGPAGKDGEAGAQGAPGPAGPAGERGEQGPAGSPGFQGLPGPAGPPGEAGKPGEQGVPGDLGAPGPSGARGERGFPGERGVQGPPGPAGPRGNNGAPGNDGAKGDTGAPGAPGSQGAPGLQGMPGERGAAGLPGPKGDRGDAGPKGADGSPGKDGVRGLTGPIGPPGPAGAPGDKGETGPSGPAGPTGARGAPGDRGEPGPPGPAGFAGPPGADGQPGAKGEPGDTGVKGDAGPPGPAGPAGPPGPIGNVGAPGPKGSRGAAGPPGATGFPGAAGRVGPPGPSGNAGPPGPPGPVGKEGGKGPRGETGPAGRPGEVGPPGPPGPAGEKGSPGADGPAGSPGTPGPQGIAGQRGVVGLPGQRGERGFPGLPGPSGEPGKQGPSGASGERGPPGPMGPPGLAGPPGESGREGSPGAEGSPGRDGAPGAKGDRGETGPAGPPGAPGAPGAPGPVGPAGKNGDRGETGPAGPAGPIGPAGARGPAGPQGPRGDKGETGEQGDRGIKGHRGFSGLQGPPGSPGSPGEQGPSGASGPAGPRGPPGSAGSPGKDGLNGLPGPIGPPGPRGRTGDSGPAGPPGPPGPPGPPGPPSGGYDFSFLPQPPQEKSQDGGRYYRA
rat collagen type I, sequence (P02466 86-1125, chain 2 of 2): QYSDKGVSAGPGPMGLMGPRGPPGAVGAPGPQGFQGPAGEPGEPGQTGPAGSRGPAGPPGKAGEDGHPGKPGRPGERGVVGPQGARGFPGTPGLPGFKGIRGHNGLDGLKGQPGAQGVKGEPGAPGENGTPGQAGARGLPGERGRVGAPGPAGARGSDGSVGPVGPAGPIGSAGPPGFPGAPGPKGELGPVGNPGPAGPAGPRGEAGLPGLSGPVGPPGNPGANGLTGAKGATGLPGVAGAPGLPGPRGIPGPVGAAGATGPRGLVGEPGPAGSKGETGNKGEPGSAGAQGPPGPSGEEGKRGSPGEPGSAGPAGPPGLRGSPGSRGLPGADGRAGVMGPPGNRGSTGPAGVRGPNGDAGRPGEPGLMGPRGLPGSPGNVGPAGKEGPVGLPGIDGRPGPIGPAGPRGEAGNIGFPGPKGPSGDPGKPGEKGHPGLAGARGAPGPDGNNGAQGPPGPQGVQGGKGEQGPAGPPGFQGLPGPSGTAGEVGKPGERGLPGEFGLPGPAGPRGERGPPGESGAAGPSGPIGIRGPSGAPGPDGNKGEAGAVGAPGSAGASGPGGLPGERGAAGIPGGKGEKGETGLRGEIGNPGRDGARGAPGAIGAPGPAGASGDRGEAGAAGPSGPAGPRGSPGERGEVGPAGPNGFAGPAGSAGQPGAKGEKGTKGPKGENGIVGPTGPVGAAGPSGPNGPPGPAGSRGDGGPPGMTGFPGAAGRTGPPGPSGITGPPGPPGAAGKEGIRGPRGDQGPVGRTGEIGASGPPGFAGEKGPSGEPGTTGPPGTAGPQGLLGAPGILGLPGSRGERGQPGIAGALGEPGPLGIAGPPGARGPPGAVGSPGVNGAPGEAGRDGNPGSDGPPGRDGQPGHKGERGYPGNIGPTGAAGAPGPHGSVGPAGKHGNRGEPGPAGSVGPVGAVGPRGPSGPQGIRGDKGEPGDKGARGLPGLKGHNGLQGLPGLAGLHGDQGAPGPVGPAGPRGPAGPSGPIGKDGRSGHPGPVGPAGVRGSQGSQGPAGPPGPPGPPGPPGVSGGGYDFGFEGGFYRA

B1: LAIR-1/Fc wt fusion protein (Fc fusion, human, UniProt Q6GTX8 22-165, looked up)
chain: QEEDLPRPSISAEPGTVIPLGSHVTFVCRGPVGVQTFRLERDSRSTYNDTEDVSQASPSESEARFRIDSVREGNAGLYRCIYYKPPKWSEQSDYLELLVKESSGGPDSPDTEPGSSAGPTQRPSDNSHNEHAPASQGLKAEHLY
- Kd: 145 nM
- koff: 0.0456 s⁻¹
